Measured values: patent US20250129146A1, “COMBINED CANCER THERAPY WITH AN EPITHELIAL CELL ADHESION MOLECULE (EPCAM) INHIBITOR AND A WNT INHIBITOR” (ACADEMIA SINICA, priority 2021, published 2025)
“Also recorded” adds a separate entry of the source. One block for each molecule: values may come before it.

Tests used:
TCF = TCF activity (TOP-Flash TCF luciferase reporter); type: cell-based, human
Experimental: Cells were plated at 5×10^3 cells per well and grown overnight in 12-well plates. Then, cells were transiently transfected with TOP-Flash TCF reporter plasmid (Millipore) using poly-jet transfection reagent (SignaGen). At 48 h post transfection, cells were treated with 20 µg/mL Anti-EpCAM EpAb2-6 (Produced in house) or MT201 (Produced in house) for 6 h or 400 ng/mL LGK974 (MedChemExpress) for 9 h or the combination, as indicated. In addition, cells were treated with EpEX (Produced in house by Expi293 Expression System) or recombinant Wnt3A (R & D systems) or the combination for 8 h. Finally, cells were lysed, and the luciferase assay was performed.
(§1) The cells were seeded in 24-well plates (1×10^4 cells/well) and incubated at 37° C. for 24 h. The culture media were refreshed, and the cells were transfected with respective reporter plasmids (TCF reporter or Wnt receptor promoter reporter) by PolyJET (SignaGen). The transfected efficiency was normalized by co-transfected with pRL-TK (20 ng) as an internal control. Additional treatments were conducted as indicated. Firefly luciferase and Renilla luminescence were measured 48 h post-transfection using the Dual-Glo Luciferase Assay System (Promega), according to the manufacturer's recommendations.

active β-Catenin = experiment: Nuclear translocation of β-Catenin (immunofluorescence staining; cell fractionation with western blot); type: cell-based, human
Experimental: Cells (1×10^6) were seeded overnight and further allowed to grow in serum free conditions. Then cells were further treated with 20 μg/mL mEpAb2-6 or hEpAb2-6 or MT201 for 6 h or with 400 ng/mL LGK974 (MedChemExpress) for 9 h or combination as indicated. Samples were fractioned into cytosol and nuclear extracts using nuclear/cytosol fractionation kit (Biovision) according to the manufacturer's protocol. The fractions were then subjected to western blot analysis.
(§2) For western blotting, cells were extracted using radioimmunoprecipitation assay (RIPA) buffer [(0.01 M sodium phosphate, pH 7.2), 150 mM NaCl, 2 mM EDTA, 50 mM NaF, 1% Nonidet P-40, 1% sodium deoxycholate, and 0.1% SDS)] containing phosphatase inhibitor (Roche) and protease inhibitor (Roche) cocktail. Equal amounts of protein were separated by SDS-PAGE and then transferred to PVDF membranes. The membranes were blocked with 3% BSA in TBST (Blocking solution) and incubated with necessary primary antibodies in the blocking solution overnight at 4° C. Membranes were then incubated with HRP-conjugated secondary antibodies in the blocking solution for 1 h at room temperature, and protein expression were detected. Antibodies used: anti-α-tubulin (Sigma), anti-EpCAM (abeam), anti-Active β-Catenin (Millipore), anti-total β-Catenin (abeam), anti-Frizzled 6 (CST), anti-Frizzled 7 (Santa Cruz Biotech), anti-LRP5 (abcam), anti-Phospho-LRP5 (abcam), anti-Phospho-LRP6 (CST), anti-LRP6 (CST) and anti-EpEX antibody EpAb3-5 (Produced in house), anti-ADAM17 (abcam), anti-phopho-ADAM17 (abcam), anti-Presenilin2 (abcam), anti-phospho-Presenilin2 (S327) (abcam), anti-phospho-Presenilin2 (S330) (abcam) and anti-Axin2 (CST).
Glass slides were used in 24-well plates and coated with 0.1% gelatin. Further, 3×10^4 cells were seeded in serum free medium overnight. Cells were treated with 20 μg/mL EpAb2-6 for 6 h, or 400 ng/mL LGK974 (MedChemExpress) for 9 h or the combination. Cells were washed using ice-cold PBS and fixed with 4% paraformaldehyde for 15 min at RT and washed with ice-cold PBS. Further, cells were permeabilized using 0.1% triton-X in PBS for 20 min and subsequently washed with PBS. Cells were blocked with 3% BSA in PBS for 1 h at RT. Next, cells were treated with primary antibody anti-Active β-Catenin (Millipore) overnight. Then, cells were washed and treated with secondary antibody in 3% BSA containing PBS along with DAPI for 1 h at RT. Samples were then washed in PBS five times and mounted for microscopy. Nuclear β-Catenin intensities were calculated using IMARIS (Oxford Instruments) software.

[1] = tested on: Wnt receptor promoters (LRP5, LRP6, FZD6, FZD7); experiment: Wnt receptor promoter luciferase reporter assay; type: cell-based, human; conditions: cells transfected with EpCAM plasmid; overnight DAPT treatment
Experimental: as §1
The putative promoter regions of LRP5 (−1187 to +200), LRP6 (−1543 to +55), FZD6 (−1385 to +205) and FZD7 (−1285 to +116) were cloned from HeLa genomic DNA and fused to pGL4.18 plasmid (Promega, USA). The genomic DNA was extracted using a Genomic DNA Isolation Kit (NovelGene, TW) according to the manufacturer's recommendations.

[2] = tested on: Wnt receptors (FZD6/7, LRP5/6); experiment: Wnt receptor protein and mRNA expression (western blot, qPCR); type: cell-based, human; conditions: HT29 and HCT116 cells; overnight DAPT treatment
Experimental: as §2
Total RNA was extracted using TRI reagent and 5 μg of the total RNA was further reverse-transcribed using oligo (dT) primer with reverse transcriptase. Quantitative real time RT-PCR (qPCR) was performed on cDNA using the Light Cycler 480 SYBR Green-I Master kit and the LightCycler480 System. The gene expression levels of each sample were normalized to the expression levels of glyceraldehyde 3-phosphate dehydrogenase (GAPDH) or β-actin.

[3] = tested on: HCT116, HT29 and SW620 cells; experiment: Tumorsphere assay; type: cell-based, human; conditions: summary statement; CRC cells; tumorsphere and colony formation
Experimental: Cells were seeded in ultra-low adherent 6-well plates (5×10^4 cells per well) or 24-well plates (1×10^3 cells per well) and maintained in DMEM/F-12 supplemented with B27. Further, cells were treated with 20 μg/mL mEpAb2-6, hEpAb2-6 or MT201 (Produced in house), or 400 ng/mL LGK974 (MedChemExpress) or the combination, by direct addition to the culture medium. The entire culture medium, including the treatment component, was changed in every other day. Cells were cultured for 10 days, and on 10th day, spheres were counted and photographed under the microscope.

[4] = tested on: colon cancer cells (SW620, HCT116); experiment: Annexin-V/PI apoptosis assay; type: cell-based, human; conditions: HCT116 cells; 20 μg/mL hEpAb2-6, mEpAb2-6 or MT201 for 24 hrs
Experimental: Cells were seeded in 24-well plate ([…] cells per well) overnight and then treated with 20 μg/mL mEpAb2-6, hEpAb2-6 or MT201, or […] LGK974 (MedChemExpress) or the combination for 24 hrs. Cell pellets were collected, and an apoptosis assay was performed using an Annexin-V/PI apoptosis kit (BD Biosciences). Results were read by flow cytometry analysis percentage apoptotic cells was calculated.

EpCAM = target: T1, EpCAM (Homo sapiens, UniProt P16422); conditions: general description of other anti-EpCAM antibodies; cited from earlier work
T1 construct: HEK293T cells were transfected with full length or EGF like-domain deletion mutant EpCAM-V5; V5; expressed in transfected cells; host or cells: HEK293T
T1 sequence (P16422 24-314): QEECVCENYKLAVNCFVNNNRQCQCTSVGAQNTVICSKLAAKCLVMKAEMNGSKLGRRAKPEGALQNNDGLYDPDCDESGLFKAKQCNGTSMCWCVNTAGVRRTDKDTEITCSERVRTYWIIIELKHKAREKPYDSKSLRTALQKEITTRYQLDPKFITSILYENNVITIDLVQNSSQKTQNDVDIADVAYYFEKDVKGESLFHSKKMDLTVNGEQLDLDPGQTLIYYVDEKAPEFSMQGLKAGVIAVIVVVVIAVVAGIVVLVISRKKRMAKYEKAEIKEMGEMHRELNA

[5] = tested on: colon cancer cells (SW620, HCT116); conditions: general description of other anti-EpCAM antibodies; cited from earlier work
[6] = wild-type HCT116 cells, DAPT with or without EpEX

TCF activity (TCF; [6]): marginally decreased TCF activity
Wnt receptor promoter activity [1]: almost completely blocked the effect
Molecule: C[C@H](NC(=O)Cc1cc(F)cc(F)c1)C(=O)N[C@H](C(=O)OC(C)(C)C)c1ccccc1 [DAPT, reference compound]
nuclear translocation of β-Catenin (active β-Catenin; [6]): decreased nuclear translocation of β-Catenin
expression of Wnt receptors [2]: reduced expression of Wnt receptors

B1: hEpAb2-6: humanized form of EpAb2-6 (antibody, V domains shown)
VH: VKLQESGPELKKPGETVKISCKASGYTFTDYSMHWVKQAPGKGLKWMGWINTETGEPTYADDFKGRFAFSLETSASTAYLQINNLKNEDTATYFCARTAVYWGQGTTVTVSS
VL: DIQMTQSPSSLSASLGERVSLTCRASQEISVSLSWLQQEPDGTIKRLIYATSTLDSGVPKRFSGSRSGSDYSLTISSLESEDFVDYYCLQYASYPWTFGGGTKLEIKRADAAPTVS
TCF activity (TCF; HT29 cells, 20 µg/mL antibody for 6 h): retained β-Catenin inhibitory activity thus related TCF activity
cancer stemness properties [3]: limits cancer stemness
nuclear translocation of β-Catenin (active β-Catenin; HT29 cells, 20 μg/mL hEpAb2-6 or MT201 for 6 h): retained β-Catenin inhibitory activity; also recorded: attenuates nuclear translocation of β-Catenin
induction of apoptosis [4]: induces apoptosis

B2: edrecolomab: other anti-EpCAM antibody targeting only the EGF I domain (antibody, chains of the INN, looked up, V domains shown)
VH: QVQLQQSGAELVRPGTSVKVSCKASGYAFTNYLIEWVKQRPGQGLEWIGVINPGSGGTNYNEKFKGKATLTADKSSSTAYMQLSSLTSDDSAVYFCARDGPWFAYWGQGTLVTVSA
VL: NIVMTQSPKSMSMSVGERVTLTCKASENVVTYVSWYQQKPEQSPKLLIYGASNRYTGVPDRFTGSGSATDFTLTISSVQAEDLADYHCGQGYSYPYTFGGGTKLEIK
EpCAM domains bound (EpCAM): target only the well-described EGF I domain of EpCAM; also recorded: binding to domain I only
inducing apoptosis of cancer cells [5]: failing
